The results in this text go back to PMC2743173 (Neuron, 2008).

Test [1] addresses LRP4N-Myc (UniProt Q9QYP1). As to the kind of experiment: ELISA.
Test [2] deals with LRP4N-Myc (UniProt Q9QYP1 21-1723). In words: ELISA. Background: In an ELISA, binding on a coated surface is turned into a signal by an enzyme label.
LRP4N-Myc (UniProt Q9QYP1 21-1723), sequence (Q9QYP1 21-1723): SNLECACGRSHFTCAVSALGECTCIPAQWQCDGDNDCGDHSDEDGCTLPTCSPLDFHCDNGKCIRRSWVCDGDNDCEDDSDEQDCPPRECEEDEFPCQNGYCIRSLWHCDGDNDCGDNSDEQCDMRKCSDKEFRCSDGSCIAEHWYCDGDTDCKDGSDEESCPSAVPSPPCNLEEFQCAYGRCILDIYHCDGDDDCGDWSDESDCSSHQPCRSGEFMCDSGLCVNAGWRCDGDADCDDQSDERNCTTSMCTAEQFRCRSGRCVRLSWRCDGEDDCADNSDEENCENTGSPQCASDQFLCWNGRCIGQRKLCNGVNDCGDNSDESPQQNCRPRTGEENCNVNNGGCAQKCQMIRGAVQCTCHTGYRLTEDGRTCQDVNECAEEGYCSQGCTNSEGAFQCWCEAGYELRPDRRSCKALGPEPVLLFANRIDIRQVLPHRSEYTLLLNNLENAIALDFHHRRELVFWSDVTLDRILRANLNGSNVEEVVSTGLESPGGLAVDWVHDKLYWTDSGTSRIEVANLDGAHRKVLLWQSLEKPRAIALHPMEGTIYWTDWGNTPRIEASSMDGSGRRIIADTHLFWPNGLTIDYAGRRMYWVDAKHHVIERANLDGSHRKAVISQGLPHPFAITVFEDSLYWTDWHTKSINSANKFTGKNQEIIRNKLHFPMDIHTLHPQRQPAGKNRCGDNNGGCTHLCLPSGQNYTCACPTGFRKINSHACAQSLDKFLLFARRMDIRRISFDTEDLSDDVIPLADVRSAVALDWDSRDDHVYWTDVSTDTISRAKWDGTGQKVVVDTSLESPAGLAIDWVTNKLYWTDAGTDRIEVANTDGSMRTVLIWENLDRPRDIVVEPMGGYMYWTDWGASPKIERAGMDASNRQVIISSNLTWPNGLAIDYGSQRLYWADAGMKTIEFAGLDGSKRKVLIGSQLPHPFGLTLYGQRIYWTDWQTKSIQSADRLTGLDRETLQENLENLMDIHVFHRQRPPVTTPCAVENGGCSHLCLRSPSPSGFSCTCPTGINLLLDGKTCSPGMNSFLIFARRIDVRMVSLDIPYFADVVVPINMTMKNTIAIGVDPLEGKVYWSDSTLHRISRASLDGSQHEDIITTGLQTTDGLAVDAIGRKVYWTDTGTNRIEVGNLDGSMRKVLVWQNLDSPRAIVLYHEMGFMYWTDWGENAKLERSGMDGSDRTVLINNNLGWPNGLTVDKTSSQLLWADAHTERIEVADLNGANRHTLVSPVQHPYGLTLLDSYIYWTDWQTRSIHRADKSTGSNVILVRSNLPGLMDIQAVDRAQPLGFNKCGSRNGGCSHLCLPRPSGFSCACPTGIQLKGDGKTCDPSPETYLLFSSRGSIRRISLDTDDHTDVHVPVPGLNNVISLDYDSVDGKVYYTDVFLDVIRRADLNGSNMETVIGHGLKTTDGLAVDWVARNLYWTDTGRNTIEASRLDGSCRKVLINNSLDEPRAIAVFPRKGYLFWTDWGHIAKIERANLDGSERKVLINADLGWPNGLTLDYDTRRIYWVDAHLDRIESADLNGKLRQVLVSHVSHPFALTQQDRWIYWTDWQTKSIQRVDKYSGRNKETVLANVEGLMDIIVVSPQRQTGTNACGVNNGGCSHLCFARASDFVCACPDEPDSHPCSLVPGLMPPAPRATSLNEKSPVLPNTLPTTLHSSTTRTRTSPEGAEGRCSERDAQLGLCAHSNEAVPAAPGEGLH

LRP4N-Myc (UniProt Q9QYP1), sequence (Q9QYP1 21-1723): as above

Broadly, the Kd is a measure of binding affinity in units of concentration. A lower Kd goes with tighter binding. Take nAgrin-AP (domain or fragment): the Kd in the test with LRP4N-Myc [1] turned out to be 0.5 nM. That is a sub-nanomolar value.

B1: MuSK-AP (domain or fragment)
chain: EKLPKAPVITTPLETVDALVEEVATFMCAVESYPQPEISWTRNKILIKLFDTRYSIRENGQLLTILSVEDSDDGIYCCIANNGVGGAVESCGALQVKMKPKITRPPINVKIIEGLKAVLPCTTMGNPKPSVSWIKGDNALRENSRIAVLESGSLRIHNVQKEDAGQYRCVAKNSLGTAYSKLVKLEVEVFARILRAPESHNVTFGSFVTLRCTAIGIPVPTISWIENGNAVSSGSIQESVKDRVIDSRLQLFITKPGLYTCIATNKHGEKFSTAKAAATVSIAEWSKSQKDSQGYCAQYRGEVCDAVLAKDALVFFNTSYRDPEDAQELLIHTAWNELKAVSPLCRPAAEALLCNHLFQECSPGVVPTPMPICREYCLAVKELFCAKEWQAMEGKAHRGLYRSGMHLLPVPECSKLPSMHRDPTACTRLPYLDYKKENITTFPSITSSRPSADIPNLPASTSSFAVSPAYSMT
As to B1, binding with LRP4N-Myc [2] was characterised by a dissociation constant (Kd) of 0.45 ± 0.041 nM.
